Experimental data published in paper PMC7997955, “Bora phosphorylation substitutes in trans for T-loop phosphorylation in Aurora A to promote mitotic entry” (Nature Communications, 2021).

T1: fluorescein-labeled Tpx2^1–43 polypeptide (UniProt Q9ULW0 1-43, fluorescein (FITC) label, position not stated)
T1 construct: Tpx2 (Targeting Protein for Xenopus kinesin-like protein 2), first 43 residues; also called FITC-Tpx2^1–43; source: synthetic peptide (Proteogenix)
T1 peptide (looked up): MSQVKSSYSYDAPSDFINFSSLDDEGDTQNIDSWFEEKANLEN

T2: Full-length human AURKA^WT (Aurora A kinase) (human, UniProt O14965 1-403, phosphothreonine at T288 (T-loop; 'WT phosphorylated'))
T2 construct: non-native residues left at the N-terminus after TEV digestion of the 6xHis-GST fusion; Aurora A kinase (AURKA), human, full length; also called AURA^WT; WT phosphorylated; source: E. coli BL21 DE3 pLyS RIL, purified (glutathione sepharose, TEV cleavage, HiTrap SP, Superdex 200); not shown: 6xHis, N-terminal, cleaved; GST, N-terminal, cleaved
T2 sequence: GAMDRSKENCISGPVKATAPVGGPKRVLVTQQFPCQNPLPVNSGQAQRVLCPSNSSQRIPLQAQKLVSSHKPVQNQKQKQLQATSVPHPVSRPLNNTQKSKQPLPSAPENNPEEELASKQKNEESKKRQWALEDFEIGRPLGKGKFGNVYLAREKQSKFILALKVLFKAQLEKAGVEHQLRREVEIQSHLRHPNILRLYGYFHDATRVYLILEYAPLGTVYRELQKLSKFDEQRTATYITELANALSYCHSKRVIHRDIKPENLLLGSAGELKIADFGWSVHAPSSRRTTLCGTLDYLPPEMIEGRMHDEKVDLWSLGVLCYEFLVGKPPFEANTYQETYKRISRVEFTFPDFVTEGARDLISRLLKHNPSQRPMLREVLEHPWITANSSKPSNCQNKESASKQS

T3: Full-length human AURKA^T288V (human, UniProt O14965 1-403, T288V)
T3 construct: non-native residues left at the N-terminus after TEV digestion of the 6xHis-GST fusion; Aurora A kinase (AURKA), human, full length, T288V; Lacks T-loop phosphorylation; MW 45935.52 in the SPR methods; also called AURKA T-loop mutant (T288V); source: E. coli BL21 DE3 pLyS RIL, purified (glutathione sepharose, TEV cleavage, HiTrap SP, Superdex 200); not shown: 6xHis, N-terminal, cleaved; GST, …
T3 sequence: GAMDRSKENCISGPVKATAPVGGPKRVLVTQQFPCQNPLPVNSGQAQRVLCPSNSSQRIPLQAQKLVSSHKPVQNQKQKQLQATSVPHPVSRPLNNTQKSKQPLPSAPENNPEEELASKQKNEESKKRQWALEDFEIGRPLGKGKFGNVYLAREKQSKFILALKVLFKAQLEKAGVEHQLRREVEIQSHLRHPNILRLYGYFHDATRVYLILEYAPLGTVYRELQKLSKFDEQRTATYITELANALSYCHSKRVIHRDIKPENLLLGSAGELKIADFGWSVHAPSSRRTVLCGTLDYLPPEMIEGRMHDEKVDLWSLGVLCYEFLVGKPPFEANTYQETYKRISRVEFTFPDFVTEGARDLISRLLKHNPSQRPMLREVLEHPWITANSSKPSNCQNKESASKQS

T4: Full-length human AURKA^T288V (human, UniProt O14965 1-403, T288V, not phosphorylated: 0P by intact mass (Supplementary Fig. S3a))
T4 construct: non-native residues left at the N-terminus after TEV digestion; Aurora A kinase (AURKA), human, full length, T-loop mutant T288V; source: E. coli BL21 DE3 pLysS RIL, purified (glutathione sepharose, TEV cleavage, HiTrap SP, Superdex 200); not shown: 6xHis, N-terminal, cleaved; GST, N-terminal, cleaved
T4 sequence: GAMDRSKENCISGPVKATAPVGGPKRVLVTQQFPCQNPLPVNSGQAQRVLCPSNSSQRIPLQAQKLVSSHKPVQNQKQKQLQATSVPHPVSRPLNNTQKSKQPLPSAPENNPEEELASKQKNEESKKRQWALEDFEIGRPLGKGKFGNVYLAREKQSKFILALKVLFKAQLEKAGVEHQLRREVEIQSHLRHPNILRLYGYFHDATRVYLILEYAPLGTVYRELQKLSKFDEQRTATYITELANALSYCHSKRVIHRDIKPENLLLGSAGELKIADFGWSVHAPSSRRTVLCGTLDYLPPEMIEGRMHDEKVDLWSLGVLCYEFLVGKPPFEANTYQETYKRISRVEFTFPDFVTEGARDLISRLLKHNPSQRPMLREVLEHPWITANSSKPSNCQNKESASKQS


How the values were obtained:
Details in all cases: both partners purified
[1] = biological target: T1, fluorescein-labeled Tpx2^1–43 …; experiment: fluorescence polarisation; direct binding: 5 nM FITC-Tpx2^1–43 with increasing AURKA; 25 mM HEPES pH 7.5, 50 mM NaCl, 10 mM MgCl2, 0.1 mg/mL BSA, 0.01% Brij, 3 mM ADP, 2 mM DTT
[2] = biological target: T2, Full-length human AURKA^WT (Aurora A …); experiment: SPR; biotinylated AVI-Bora^1–224 or AVI-pBora^1–224 immobilised on a streptavidin chip (Biacore S200), AURKA flowed over; 25 °C; 25 mM HEPES pH 7.5, 150 mM NaCl, 20 mM MgCl2, 1 mM TCEP, 0.01% Brij 35; flow 10 µL/min; mean of n = 2; the paper says the affinities appear under-estimated
[3] = biological target: T3, Full-length human AURKA^T288V; experiment: as above
[4] = biological target: T4, Full-length human AURKA^T288V; experiment: fluorescence polarisation; competitive displacement: FITC-Tpx2^1–43 (5 nM) and AURKA (35 nM) kept constant, unlabeled competitor varied; 25 mM HEPES pH 7.5, 50 mM NaCl, 10 mM MgCl2, 0.1 mg/mL BSA, 0.01% Brij, 3 mM ADP, 2 mM DTT

Row | fold reduced binding against the other AURKA^T288V mutants [1] | Kd [2] | Kd [3] | IC50 [4] | Binder
1 | 3 fold | – | – | – | AURKA^([T288V R255A]) (enzyme, human, non-native residues left at the N-terminus after TEV digestion of the 6xHis-GST fusion; Aurora A kinase (AURKA), human, full length, T288V R255A; source: E. coli BL21 DE3 pLyS RIL, purified (glutathione sepharose, TEV cleavage, HiTrap SP, Superdex 200); not shown: 6xHis, N-terminal, cleaved; GST, N-terminal, cleaved) GAMDRSKENCISGPVKATAPVGGPKRVLVTQQFPCQNPLPVNSGQAQRVLCPSNSSQRIPLQAQKLVSSHKPVQNQKQKQLQATSVPHPVSRPLNNTQKSKQPLPSAPENNPEEELASKQKNEESKKRQWALEDFEIGRPLGKGKFGNVYLAREKQSKFILALKVLFKAQLEKAGVEHQLRREVEIQSHLRHPNILRLYGYFHDATRVYLILEYAPLGTVYRELQKLSKFDEQRTATYITELANALSYCHSKRVIHADIKPENLLLGSAGELKIADFGWSVHAPSSRRTVLCGTLDYLPPEMIEGRMHDEKVDLWSLGVLCYEFLVGKPPFEANTYQETYKRISRVEFTFPDFVTEGARDLISRLLKHNPSQRPMLREVLEHPWITANSSKPSNCQNKESASKQS
2 | – | ~52 µM | 11 µM | – | biotinylated AVI-tagged Bora^1–224 (domain or fragment, biotin (on the AVI tag, by BirA), source: E. coli BL21 DE3 pLyS RIL, purified, biotinylated in vitro with 6xHis-BirA and re-purified (Superdex 200); not shown: AVI, N-terminal, kept; 6xHis, N-terminal, cleaved) not shown
3 | – | ~18 µM | 6 µM | – | biotinylated AVI-tagged pBora^1–224 (phosphorylated by CyclinA2-Cdk2) (domain or fragment, biotin (on the AVI tag, by BirA); phosphorylated by CyclinA2-Cdk2 (average of eight phosphorylations), As m9, phosphorylated; MW 27440 calculated from an average of eight phosphorylations; not shown: AVI, N-terminal, kept; 6xHis, N-terminal, cleaved) not shown
4 | – | – | – | 0.68 µM | pBora^(18–120 [S27A T52A]) (domain or fragment, phosphorylated; with ERK 2P and 3P by intact mass, 2 phosphorylations expected (S41, S112) (Supplementary Fig. S6e), non-native residues left at the N-terminus after TEV digestion; Bora, human, residues 18-120 with S27A and T52A; source: E. coli BL21 DE3 pLysS RIL, purified, then phosphorylated in vitro; not shown: 6xHis, N-terminal, cleaved) not shown
